For 34 variants, response results are on record in PMC8424379 (2021).

B1: full-length Ccq1 fused to Gal4 activation domain [S. pombe] / Tpz1 fused to the Gal4 DNA binding domain [S. pombe] (parent complex)
chain 1: MSEINDFTNSIIINESDTKYEVYSEVNSSNRWIAKEDCPSPLEDVWLLKLAGHKRKLEEPLSCMRNEEPASKQREIEKFLRTDLDHSENDFLTQEVDEFPSTQQLFPIPLQNDTAFDSSEESITKSSKSSFSVLDIGLPMSALQRKMMHRLVQYFAFCIDHFCTGPSDSRIQEKIRLFIQSAHNIAKHPSLYDTEVRNPSAAESTNSHVSLDASNFSSYAENSSKFLFLQELFKNLSPSYSKTFFLFISNQFLANTLTQWLKSQNIDAELWAEEDAKTSQHPAIWICVSKKAPSASHFLQSCPDLSATIFYDIEAYMSVTSSLPSIQSLVLRLIHLGSIEHAIKCFQSSYNASFLVNIVGVVATLSSSSEENSEASNLSTLFEKSGNFEEILGSESHSSITEKTRDIAKNVATWLKNGENFSSWPLPPLMDLASLSVAEPRDSQPSVSQVNDTFVKSSDSTFPSSQSMQSPSKLHSLTSNATDLLSSSSLKKNFFSQQEADEVELSNNYDLQGAAVQYLQRRLRMVEDELHEAINSKNVQQSRSEELEQQISKLTDNLQEYRNTVRELKLDLEKSKKKNEDLSKLEVEKVEEIANLKKELTHLAKQQEFGFKYVQEFSNEDLQGKLIEANEKNYKLTQLLKTQKEDADFITNQYQNASTFAAEQSKEVAKLQAECKRLQAINSKVMEEVKVYNDSRVEALLAKVSSLEETLKILEQKSLPKFTPHNQSPRIIDSN
chain 2: MSNCLKHPWLENGLLNLIKNADVLPIRVFKCQPLQIFEYIRYEHPIRCKLSDTEFYIEAEFSSQSISDLNNFTEKRITSLRGGIVTLGNFLIHLIPSQSGIIPWIQVESFNFQGCEGAVFGNPKAITTSALFNALLQSPYLAALANEFNRSIKEGSSYQEASLSQQEKPNDNTSNSRDIKNNIQFHWKNMTSLSIEECIIPKGQQLILEKESEENTTHGIYLEERKMAQGLHNSVSETPEVKQEDNDEDLDAYSWSSSTDSAGEIPSLPTNRKILEKIAEKPPPFESPLEDDETPDQTNEHEANQVNVSQLPLNPRGSGISGRPVESTEQLNSSLTIERSQSIQSTDSKQRVETQSHRRSKIEIFDAQDELFDRSICTTIDDSTGKLLNAEETPIKTGDLHSTSASSVISCTPPAINFTSDICNEQIELEYKRKPIPDYDFMKGLETTLQELYVEHQSKKRRLELFQLTNNHQKNSEACEMCRLGLPHGSFFELLRDWKKIEEFRNKS
B2: full-length Ccq1 fused to Gal4 activation domain [S. pombe] / Raf2 fused to Gal4 DNA-binding domain [S. pombe] (parent complex)
chain 1: B1 chain 1
chain 2: MPPVRAEKKRKTDLIEQVCVTNKAGELVDLEDVLEYGPYSLTGILSSEKDEQEPLFDESIVLGYSIKISPVWTYNLKDVPEKETMSIWIVTPQRRYGILSPSSEYKAIYEQISEKNRLFYLIKTKFKDDMISGTLEDYDNYIEVLKEKLELPSCFQAILLVQKHIRFLLTQMVATSSLHVWSESPFFIRIRSSYEHLILQINKNIYNARQERKKSKLSSNNPSDNNTTMKSSLNQALTLINLPEQPFSISSPTATPQLGVVKRTSPLRFPLNDIWLSGLRIVDPNIESISLWKRIQVSTSPKHQRYISLQEVCSVIAQQLQITNLEALNKLSSHGETLLQIMHTAFTWRGTKLFNDIKHAIGFRSSVQQARSQFRGYCYDYLFMHCNNGEKTSLHLLRTLICMKLDFSNAQLAAKILFHFLLFDIGSGLSGSDYTYEQYINHSAVAFSFTEEIFEKNFVTVLPDFVKLFSISFGYWPAFSFYDELLKLLRNKYPKVYSSTPNLCDQVWLDRTNLFPCNRSTRSTLPYRPTKLLDLASASSCLSKKETDFKQDTGLYSYNLEKVEALKVSPDLQTGIWSCPVQNCLYFAVCDNPYKPSQVIYDHLLGHVDSKFIFKTPSNSVRSFTNKLEHIMYNIN
B3: full-length Ccq1 fused to Gal4 activation domain [S. pombe] / Clr3 fused to the Gal4 DNA binding domain [S. pombe] (parent complex)
chain 1: B1 chain 1
chain 2: MLASNSDGASTSVKPSDDAVNTVTPWSILLTNNKPMSGSENTLNNESHEMSQILKKSGLCYDPRMRFHATLSEVDDHPEDPRRVLRVFEAIKKAGYVSNVPSPSDVFLRIPAREATLEELLQVHSQEMYDRVTNTEKMSHEDLANLEKISDSLYYNNESAFCARLACGSAIETCTAVVTGQVKNAFAVVRPPGHHAEPHKPGGFCLFNNVSVTARSMLQRFPDKIKRVLIVDWDIHHGNGTQMAFYDDPNVLYVSLHRYENGRFYPGTNYGCAENCGEGPGLGRTVNIPWSCAGMGDGDYIYAFQRVVMPVAYEFDPDLVIVSCGFDAAAGDHIGQFLLTPAAYAHMTQMLMGLADGKVFISLEGGYNLDSISTSALAVAQSLLGIPPGRLHTTYACPQAVATINHVTKIQSQYWRCMRPKHFDANPKDAHVDRLHDVIRTYQAKKLFEDWKITNMPILRDSVSNVFNNQVLCSSNFFQKDNLLVIVHESPRVLGNGTSETNVLNLNDSLLVDPVSLYVEWAMQQDWGLIDINIPEVVTDGENAPVDILSEVKELCLYVWDNYVELSISKNIFFIGGGKAVHGLVNLASSRNVSDRVKCMVNFLGTEPLVGLKTASEEDLPTWYYRHSLVFVSSSNECWKKAKRAKRRYGRLMQSEHTETSDMMEQHYRAVTQYLLHLLQKARPTSQ
B4: Ccq1_(496–583), Raf2-binding motif of Ccq1, fused to Gal4 activation domain [S. pombe] / Raf2 fused to Gal4 DNA-binding domain [S. pombe] (parent complex)
chain 1: SQQEADEVELSNNYDLQGAAVQYLQRRLRMVEDELHEAINSKNVQQSRSEELEQQISKLTDNLQEYRNTVRELKLDLEKSKKKNEDLS
chain 2: B2 chain 2

The variants in one assay derive from B1. As to the kind of experiment: yeast two-hybrid (β-galactosidase); Tpz1 fused to the Gal4 DNA binding domain; Ccq1 fused to Gal4 activation domain; parent: 94; read off a plot.
With chain 1 L511R, the response is about 95.

In the case of chain 1 L519R, the response was about 83.

As for chain 1 L523R, the response was about 90.

With chain 1 V516R, the response is about 81.

Take chain 1 Y518R: the response is about 91.

Another assay covers variants of B2. Kind of assay: yeast two-hybrid (β-galactosidase); Raf2 fused to Gal4 DNA-binding domain; Ccq1 fused to Gal4 activation domain; parent: 97; read off a plot.
For chain 1 M525R, the response is about 110.

For the variant chain 1 V516R, the response is about 3.8.

As for chain 1 L511R, the response is about 3.8.

Take chain 1 L519R: the response is about 4.8.

As for chain 1 Y518R, the response was about 4.5.

With chain 1 L523R, the response is about 51.

As to chain 1 V526R, the response is about 110.

Another assay covers variants of B3. As to the kind of experiment: yeast two-hybrid (β-galactosidase); Clr3 fused to the Gal4 DNA binding domain; Ccq1 fused to Gal4 activation domain; parent: 97; read off a plot.
Take chain 1 L511R: the response was about 88.

In the case of chain 1 L519R, the response is about 89.

In the case of chain 1 Y518R, the response was about 80.

As to chain 1 L523R, the response is about 94.

As to chain 1 V516R, the response is about 82.

The variants in a further assay derive from B4. Kind of assay: yeast two-hybrid (β-galactosidase); Raf2 fused to Gal4 DNA-binding domain; Ccq1 fused to Gal4 activation domain; read off a plot.
For the variant chain 1 Y14R, the response was about 88.

As for chain 1 L52R, the response is about 63.

On to chain 1 L24R, for which the response is about 2.5.

Consider chain 1 I39R, for which the response was about 90.

For chain 1 Y23R, the response is about 3.

On to chain 1 V31R, for which the response is about 80.

Take chain 1 L35R: the response is about 74.

Regarding chain 1 H36R, the response was about 94.

Turning to chain 1 M30R, the response is about 92.

As for chain 1 V44R, the response is about 81.

Take chain 1 L63R: the response was about 85.

In the case of chain 1 Y66R, the response was about 79.

Regarding chain 1 V8R, the response is about 82.

chain 1 V21R: the response is about 2.8.

Turning to chain 1 L10R, the response was about 87.

For the variant chain 1 L16R, the response is about 3.

Turning to chain 1 L28R, the response is about 3.
